The results in this text go back to patent US6617427 (THOMAS JEFFERSON UNIVERSITY, dated 2003).

Sequences and labels used below:
T1: LexA-daughterless (UniProt P11420 1-710, limits assumed)
T1 construct: not shown: LexA, fusion partner
T1 sequence (looked up): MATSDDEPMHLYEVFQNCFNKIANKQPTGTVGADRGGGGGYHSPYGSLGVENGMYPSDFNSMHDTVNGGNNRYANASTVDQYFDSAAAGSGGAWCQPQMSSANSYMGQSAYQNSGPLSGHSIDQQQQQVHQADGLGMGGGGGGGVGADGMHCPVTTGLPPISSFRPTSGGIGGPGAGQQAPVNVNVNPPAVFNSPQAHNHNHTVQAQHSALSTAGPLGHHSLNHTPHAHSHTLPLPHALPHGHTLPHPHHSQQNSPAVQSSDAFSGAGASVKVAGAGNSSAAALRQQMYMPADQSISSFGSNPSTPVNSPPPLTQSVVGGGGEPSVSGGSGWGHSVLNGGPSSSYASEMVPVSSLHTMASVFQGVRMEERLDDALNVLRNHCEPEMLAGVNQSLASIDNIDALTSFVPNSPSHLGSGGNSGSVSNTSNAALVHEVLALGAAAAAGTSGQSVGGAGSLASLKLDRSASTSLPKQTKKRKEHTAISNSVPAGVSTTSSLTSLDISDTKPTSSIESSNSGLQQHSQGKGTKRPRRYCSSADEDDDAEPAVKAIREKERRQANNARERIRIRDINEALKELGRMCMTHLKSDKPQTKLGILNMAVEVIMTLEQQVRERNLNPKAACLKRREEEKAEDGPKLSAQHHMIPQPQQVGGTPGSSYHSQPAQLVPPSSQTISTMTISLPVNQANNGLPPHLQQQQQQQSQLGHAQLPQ

T2: LexA-CLN3 (UniProt P13365 1-580, limits assumed)
T2 construct: not shown: LexA, fusion partner
T2 sequence (looked up): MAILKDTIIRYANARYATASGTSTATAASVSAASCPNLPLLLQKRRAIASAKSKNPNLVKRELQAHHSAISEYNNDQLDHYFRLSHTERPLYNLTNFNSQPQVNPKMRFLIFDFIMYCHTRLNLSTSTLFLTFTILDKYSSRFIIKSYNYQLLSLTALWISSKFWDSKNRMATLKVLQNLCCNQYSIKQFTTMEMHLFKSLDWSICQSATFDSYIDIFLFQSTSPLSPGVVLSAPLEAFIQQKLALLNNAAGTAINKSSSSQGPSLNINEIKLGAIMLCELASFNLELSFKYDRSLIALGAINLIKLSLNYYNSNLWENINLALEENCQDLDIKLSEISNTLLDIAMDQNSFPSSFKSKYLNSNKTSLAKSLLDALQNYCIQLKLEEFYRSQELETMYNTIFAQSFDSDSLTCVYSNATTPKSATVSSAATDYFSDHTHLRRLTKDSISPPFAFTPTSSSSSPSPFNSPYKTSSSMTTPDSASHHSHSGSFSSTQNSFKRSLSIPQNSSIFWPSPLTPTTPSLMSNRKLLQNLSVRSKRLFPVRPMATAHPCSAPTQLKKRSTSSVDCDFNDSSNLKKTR

T3: LexA-hairy (UniProt P14003 1-337, limits assumed)
T3 construct: not shown: LexA, fusion partner
T3 sequence (looked up): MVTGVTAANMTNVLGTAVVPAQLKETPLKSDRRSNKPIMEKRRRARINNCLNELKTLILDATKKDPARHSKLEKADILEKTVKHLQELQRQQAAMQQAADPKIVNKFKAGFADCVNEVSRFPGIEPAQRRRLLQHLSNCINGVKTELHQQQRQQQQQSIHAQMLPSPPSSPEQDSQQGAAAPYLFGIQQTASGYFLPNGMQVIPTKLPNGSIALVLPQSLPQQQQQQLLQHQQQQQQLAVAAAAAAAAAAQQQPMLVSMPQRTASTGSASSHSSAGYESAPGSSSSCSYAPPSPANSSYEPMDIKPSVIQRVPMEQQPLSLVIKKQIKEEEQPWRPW

T4: LexA-ftz (UniProt P02835 1-410, limits assumed)
T4 construct: not shown: LexA, fusion partner
T4 sequence (looked up): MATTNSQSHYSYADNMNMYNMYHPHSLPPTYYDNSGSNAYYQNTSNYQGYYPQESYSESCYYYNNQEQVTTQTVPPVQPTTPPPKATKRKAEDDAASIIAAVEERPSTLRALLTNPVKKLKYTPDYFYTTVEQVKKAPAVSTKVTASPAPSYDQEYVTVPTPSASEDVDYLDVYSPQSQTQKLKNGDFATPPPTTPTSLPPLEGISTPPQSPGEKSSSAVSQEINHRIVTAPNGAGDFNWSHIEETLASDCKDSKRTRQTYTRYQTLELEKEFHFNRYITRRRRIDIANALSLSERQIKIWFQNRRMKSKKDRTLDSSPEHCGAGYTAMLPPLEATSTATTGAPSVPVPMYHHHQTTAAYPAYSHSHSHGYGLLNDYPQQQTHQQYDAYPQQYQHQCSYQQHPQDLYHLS

B1: B42-Tvl-1 fusion (Tvl-1 a.a. 81-269 fused to the activation domain B42) (other, not shown: large carriers)
chain: VSALPATLDSLSIHQLAAQGELSQLKDHLRKGACPACTCLSGNNLINKPDERGFTPLIWASAFGEIETVRFLLDWGADPHILAKERESALSLASMGGYTDIVRLLLDRDVDINIYDWNGGTPLLYAVRGNHVKCVEALLARGADLTTEADSGYTPMDLAVALGYRKVQQVMESHILRLFQSTLGPVDPE
notes: Yeast two-hybrid prey; also called acid blob-Tvl-1
B2: Tvl-1 N-terminal portion (a.a. 1-96) (other)
chain: MEPTQVAENLVPNQQPPVPDLEDPEDTRDESPENSDTVVLSLFPCTPDAVNPEADASASSLQGSFLKHSTTLTNRQRGNEVSALPATLDSLSIHQL
B3: LexA-bicoid (other, UniProt P09081 2-160, looked up)
chain: AQPPPDQNFYHHPLPHTHTHPHPHSHPHPHSHPHPHHQHPQLQLPPQFRNPFDLLFDERTGAINYNYIRPYLPNQMPKPDVFPSEELPDSLVMRRPRRTRTTFTSSQIAELEQHFLQGRYLTAPRLADLSAKLALGTAQVKIWFKNRRRRHKIQSDQHK
notes: not shown: LexA, fusion partner

One assay addresses T1, LexA-daughterless. As to the kind of experiment: yeast interaction mating, B42 Tvl-1 against LexA fusion (data not shown).
For the next assay, the target named is T2, LexA-CLN3. The assay is described as above.
Another assay addresses T5, LexA-SSN6 (UniProt P14922 1-966, limits assumed).
T5 construct: not shown: LexA, fusion partner
The description is as above.

Another assay addresses T3, LexA-hairy. Described as above.
The target in a further assay is T4, LexA-ftz. The assay is described as above.
The target of a further assay is T6, LexA-DMcdc2 (UniProt P23572 1-297).
T6 construct: not shown: LexA, fusion partner
T6 sequence (P23572 whole entry, the tested form may be a part): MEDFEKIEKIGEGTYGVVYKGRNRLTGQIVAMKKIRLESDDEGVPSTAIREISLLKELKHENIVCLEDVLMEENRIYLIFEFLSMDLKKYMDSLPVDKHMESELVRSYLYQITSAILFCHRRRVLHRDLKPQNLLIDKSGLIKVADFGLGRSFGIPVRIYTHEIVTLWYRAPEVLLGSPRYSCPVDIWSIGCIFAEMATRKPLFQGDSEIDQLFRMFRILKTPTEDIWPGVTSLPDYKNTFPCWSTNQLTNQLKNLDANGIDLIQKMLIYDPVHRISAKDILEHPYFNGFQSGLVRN
The assay is described as above.

In a further assay the target is T7, LexA-Raf-1 (human, UniProt P0A7C2 1-202; P04049 1-648, limits assumed).
T7 construct: Yeast two-hybrid bait; also called LexA fusion of Raf-1 (#1)
The assay can be described thus: yeast two-hybrid (data not shown).

For assay [1], the target named is B1. The assay can be described thus: yeast interaction mating, B42 Tvl-1 against LexA fusion (data not shown).

T5 sequence (P14922 whole entry, the tested form may be a part): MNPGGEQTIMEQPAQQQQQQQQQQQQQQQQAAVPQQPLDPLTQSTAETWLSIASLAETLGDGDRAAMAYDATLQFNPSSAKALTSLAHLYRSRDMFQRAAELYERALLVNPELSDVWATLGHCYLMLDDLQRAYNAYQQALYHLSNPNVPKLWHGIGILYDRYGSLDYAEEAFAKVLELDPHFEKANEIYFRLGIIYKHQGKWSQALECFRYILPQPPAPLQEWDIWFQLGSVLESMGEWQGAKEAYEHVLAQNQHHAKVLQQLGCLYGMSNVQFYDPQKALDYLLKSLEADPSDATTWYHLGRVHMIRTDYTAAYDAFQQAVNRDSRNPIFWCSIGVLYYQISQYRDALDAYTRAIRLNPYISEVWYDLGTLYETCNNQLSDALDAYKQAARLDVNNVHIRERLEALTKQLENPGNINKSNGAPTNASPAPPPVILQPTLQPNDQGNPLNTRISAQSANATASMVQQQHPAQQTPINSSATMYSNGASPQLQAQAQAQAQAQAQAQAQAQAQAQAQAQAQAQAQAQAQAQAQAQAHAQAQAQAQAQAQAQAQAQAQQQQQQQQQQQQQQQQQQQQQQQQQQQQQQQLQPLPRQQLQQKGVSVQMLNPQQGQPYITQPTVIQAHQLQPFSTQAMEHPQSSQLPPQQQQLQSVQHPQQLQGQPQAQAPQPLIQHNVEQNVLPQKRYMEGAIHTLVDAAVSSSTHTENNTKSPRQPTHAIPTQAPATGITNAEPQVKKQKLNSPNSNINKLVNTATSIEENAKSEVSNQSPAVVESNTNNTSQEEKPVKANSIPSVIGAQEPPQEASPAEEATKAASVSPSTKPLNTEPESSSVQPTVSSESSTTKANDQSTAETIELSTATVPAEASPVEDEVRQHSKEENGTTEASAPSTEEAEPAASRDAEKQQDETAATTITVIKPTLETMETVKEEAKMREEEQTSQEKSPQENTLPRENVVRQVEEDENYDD

As for B1, the binding result in the assay with LexA-daughterless, with LexA-CLN3, in the assay with LexA-SSN6, with LexA-hairy, with LexA-ftz and with LexA-DMcdc2 was “no binding” throughout.
In the case of B2, in the assay with LexA-Raf-1, the binding result is “no binding”.
In the case of B3, in assay [1], the binding result is given as “no binding”.
